{
  "source": "paper PMC7334433",
  "about": "“Enzymatic characterization and structure-function relationship of two chitinases, LmChiA and LmChiB, from Listeria monocytogenes” (Heliyon, 2020)",
  "system": "CC(=O)N[C@H]1[C@H](Oc2ccc([N+](=O)[O-])cc2)O[C@H](CO)[C@@H](O[C@@H]2O[C@H](CO)[C@@H](O)[C@H](O)[C@H]2NC(C)=O)[C@@H]1O",
  "assay": "purified protein",
  "settings": "20 mM sodium phosphate pH 7.4, 37 °C (standard assay), substrate 0.05–0.45 mM",
  "data": [
    {"substance": "LmChiB (Listeria monocytogenes EGD-e)", "values": [
      {"measurement": "Km", "value": "375 ± 27", "unit": "µM"},
      {"measurement": "kcat", "value": "72.1 ± 1.4", "unit": "s⁻¹"},
      {"measurement": "kcat/Km", "value": 190000, "unit": "M⁻¹ s⁻¹"}
    ]},
    {"substance": "LmChiA (Listeria monocytogenes EGD-e)", "values": [
      {"measurement": "Km", "value": "1622 ± 13", "unit": "µM"},
      {"measurement": "kcat", "value": "33.6 ± 1", "unit": "s⁻¹"},
      {"measurement": "kcat/Km", "value": 20000, "unit": "M⁻¹ s⁻¹"}
    ]}
  ]
}
